According to patent publication US20250215059A1 (REGENTS OF THE UNIVERSITY OF COLORADO A BODY CORPORATE, published 2025):
Blank lines part the entries; values can stand above or below the binder they belong to.

What was measured:
[1] = biological target: T1, tau aggregates in HEK293 tau biosensor cells (4R repeat domain of tau (K18) with the P301S mutation fused to … (UniProt P10636-8 244-372)); test: Halo (JF646) imaging in seeded HEK293 tau biosensor cells
T1 construct: domain: 4R repeat domain of tau (K18); Aggregated, insoluble form inside cells; the aggregates are seeded with brain homogenate of tau transgenic mice and may hold other proteins and RNA; Number of chains in an aggregate not defined; also called cytoplasmic tau aggregates; nuclear tau aggregates; not shown: CFP or YFP fused to the repeat domain
T1 sequence (P10636 561-689 P618S): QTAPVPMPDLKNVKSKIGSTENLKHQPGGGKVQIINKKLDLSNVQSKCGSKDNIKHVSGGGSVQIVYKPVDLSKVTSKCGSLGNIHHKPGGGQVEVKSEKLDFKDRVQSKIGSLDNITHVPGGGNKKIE

[2] = biological target: T1, tau aggregates in HEK293 tau biosensor …; test: cell-based or functional assay

B1: SRRM2_5-Halo (other)
chain: MYNGIGLPTPRGSGTNGYVQRNLSLVRGRRGERPDYKGEEELRRLEAALVKRPNPDILDHERKRRVELRCLELEEMMEEQGYEEQQIQEKVATFRLMLLEKDVNPGGKEETPGQRPAVTETHQLAELNEKKNERLRAAFGISDSYVDGSSFDPQRRAREAKQPAPEPPKPYSLVRESSSSRSPTPKQKKKKKKKDRGRRSESSSPRRERKKSSKKKKHRSESESKKRKHRSPTPKSKRKSKDKKRKRSRSTTPAPKSRRAHRSTSADSASSSDTSRSRSRSAAAKTHTTALAGRSPSPASGRRGEGDAPFSEPGTTSTQRPSSPETATKQPSSPYEDKDKDKKEKSATRPSPSPERSSTGPEPPAPTPLLAERHGGSPQPLATTPLSQEPVNPPSEASPTRDRSPPKSPEKLPQSSSSESSPPSPQPTKVSRHASSSPESPKPAPAPGSHREISSSPTSKNRSHGRAKRDKSHSHTPSRRMGRSRSPATAKRGRSRSRTPTKRGHSRSRSPQWRRSRSAQRWGRSRSPQRRGRSRSPQRPGWSRSRNTQRRGRSRSARRGRSHSRSPATRGRSRSRTPARRGRSRSRTPARRRSRSRTPTRRRSRSRTPARRGRSRSRTPARRRSRTRSPVRRRSRSRSPARRSGRSRSRTPARRGRSRSRTPARRGRSRSRTPARRSGRSRSRTPARRGRSRSRTPRRGRSRSRSLVRRGRSHSRTPQRRGRSGSSSERKNKSRTSQRRSRSNSSPEMKKSRISSRRSRSLSSPRSKAKSRLSLRRSLSGSSPCPKQKSQTPPRRSRSGSSQPKMAEIGTGFPFDPHYVEVLGERMHYVDVGPRDGTPVLFLHGNPTSSYVWRNIIPHVAPTHRCIAPDLIGMGKSDKPDLGYFFDDHVRFMDAFIEALGLEEVVLVIHDWGSALGFHWAKRNPERVKGIAFMEFIRPIPTWDEWPEFARETFQAFRTTDVGRKLIIDQNVFIEGTLPMGVVRPLTEVEMDHYREPFLNPVDREPLWRFPNELPIAGEPANIVALVEEYMDWLHQSPVPKLLFWGTPGVLIPPAEAARLAKSLPNCKAVDIGPGLNLLQEDNPDLIGSEIARWLSTLEISG
modifications: JF646 Halo ligand covalently bound to the Halo tag
notes: also called truncation 5
binding result [1]: no binding

B2: SRRM2_6-Halo (other)
chain: MYNGIGLPTPRGSGTNGYVQRNLSLVRGRRGERPDYKGEEELRRLEAALVKRPNPDILDHERKRRVELRCLELEEMMEEQGYEEQQIQEKVATFRLMLLEKDVNPGGKEETPGQRPAVTETHQLAELNEKKNERLRAAFGISDSYVDGSSFDPQRRAREAKQPAPEPPKPYSLVRESSSSRSPTPKQKKKKKKKDRGRRSESSSPRRERKKSSKKKKHRSESESKKRKHRSPTPKSKRKSKDKKRKRSRSTTPAPKSRRAHRSTSADSASSSDTSRSRSRSAAAKTHTTALAGRSPSPASGRRGEGDAPFSEPGTTSTQRPSSPETATKQPSSPYEDKDKDKKEKSATRPSPSPERSSTGPEPPAPTPLLAERHGGSPQPLATTPLSQEPVNPPSEASPTRDRSPPKSPEKLPQSSSSESSPPSPQPTKVSRHASSSPESPKPAPAPGSHREISSSPTSKNRSHGRAKRDKSHSHTPSRRMGRSRSPATAKRGRSRSRTPTKRGHSRSRSPQWRRSRSAQRWGRSRSPQRRGRSRSPQRPGWSRSRNTQRRGRSRSARMAEIGTGFPFDPHYVEVLGERMHYVDVGPRDGTPVLFLHGNPTSSYVWRNIIPHVAPTHRCIAPDLIGMGKSDKPDLGYFFDDHVRFMDAFIEALGLEEVVLVIHDWGSALGFHWAKRNPERVKGIAFMEFIRPIPTWDEWPEFARETFQAFRTTDVGRKLIIDQNVFIEGTLPMGVVRPLTEVEMDHYREPFLNPVDREPLWRFPNELPIAGEPANIVALVEEYMDWLHQSPVPKLLFWGTPGVLIPPAEAARLAKSLPNCKAVDIGPGLNLLQEDNPDLIGSEIARWLSTLEISG
modifications: JF646 Halo ligand covalently bound to the Halo tag
notes: also called truncation 6
binding result [1]: no binding

B5: 42-polyserine-TNPO3-halo (other)
chain: MEGAKPTLQLVYQAVQALYHDPDPSGKERASFWLGELQRSVHAWEISDQLLQIRQDVESCYFAAQTMKMKIQTSFYELPTDSHASLRDSLLTHIQNLKDLSPVIVTQLALAIADLALQMPSWKGCVQTLVEKYSNDVTSLPFLLEILTVLPEEVHSRSLRIGANRRTEIIEDLAFYSSTVVSLLMTCVEKAGTDEKMLMKVFRCLGSWFNLGVLDSNFMANNKLLALLFEVLQQDKTSSNLHEAASDCVCSALYAIENVETNLPLAMQLFQGVLTLETAYHMAVAREDLDKVLNYCRIFTELCETFLEKIVCTPGQGLGDLRTLELLLICAGHPQYEVVEISFNFWYRLGEHLYKTNDEVIHGIFKAYIQRLLHALARHCQLEPDHEGVPEETDDFGEFRMRVSDLVKDLIFLIGSMECFAQLYSTLKEGNPPWEVTEAVLFIMAAIAKSVDPENNPTLVEVLEGVVRLPETVHTAVRYTSIELVGEMSEVVDRNPQFLDPVLGYLMKGLCEKPLASAAAKAIHNICSVCRDHMAQHFNGLLEIARSLDSFLLSPEAAVGLLKGTALVLARLPLDKITECLSELCSVQVMALKKLLSQEPSNGISSDPTVFLDRLAVIFRHTNPIVENGQTHPCQKVIQEIWPVLSETLNKHRADNRIVERCCRCLRFAVRCVGKGSAALLQPLVTQMVNVYHVHQHSCFLYLGSILVDEYGMEEGCRQGLLDMLQALCIPTFQLLEQQNGLQNHPDTVDDLFRLATRFIQRSPVTLLRSQVVIPILQWAIASTTLDHRDANCSVMRFLRDLIHTGVANDHEEDFELRKELIGQVMNQLGQQLVSQLLHTCCFCLPPYTLPDVAEVLWEIMQVDRPTFCRWLENSLKGLPKETTVGAVTVTHKQLTDFHKQVTSAEECKQVCWALRDFTRLFRGTELGSTSPVWWNSADISSSSSSSSSSSSSSSSSSSSSSSSSSSSSSSSSSSSSSSSSSGGSGGSGGGSEIGTGFPFDPHYVEVLGERMHYVDVGPRDGTPVLFLHGNPTSSYVWRNIIPHVAPTHRCIAPDLIGMGKSDKPDLGYFFDDHVRFMDAFIEALGLEEVVLVIHDWGSALGFHWAKRNPERVKGIAFMEFIRPIPTWDEWPEFARETFQAFRTTDVGRKLIIDQNVFIEGTLPMGVVRPLTEVEMDHYREPFLNPVDREPLWRFPNELPIAGEPANIVALVEEYMDWLHQSPVPKLLFWGTPGVLIPPAEAARLAKSLPNCKAVDIGPGLNLLQEDNPDLIGSEIARWLSTLEISG
tau aggregation by flow cytometry (FRET+ cells and integrated FRET density, normalized to no insert Halo) [2]: ~50 % decrease

Further lines, results first:

binding result [1]: no binding
B3: SRRM2_4-Halo (other)
chain: MYNGIGLPTPRGSGTNGYVQRNLSLVRGRRGERPDYKGEEELRRLEAALVKRPNPDILDHERKRRVELRCLELEEMMEEQGYEEQQIQEKVATFRLMLLEKDVNPGGKEETPGQRPAVTETHQLAELNEKKNERLRAAFGISDSYVDGSSFDPQRRAREAKQPAPEPPKPYSLVRESSSSRSPTPKQKKKKKKKDRGRRSESSSPRRERKKSSKKKKHRSESESKKRKHRSPTPKSKRKSKDKKRKRSRSTTPAPKSRRAHRSTSADSASSSDTSRSRSRSAAAKTHTTALAGRSPSPASGRRGEGDAPFSEPGTTSTQRPSSPETATKQPSSPYEDKDKDKKEKSATRPSPSPERSSTGPEPPAPTPLLAERHGGSPQPLATTPLSQEPVNPPSEASPTRDRSPPKSPEKLPQSSSSESSPPSPQPTKVSRHASSSPESPKPAPAPGSHREISSSPTSKNRSHGRAKRDKSHSHTPSRRMGRSRSPATAKRGRSRSRTPTKRGHSRSRSPQWRRSRSAQRWGRSRSPQRRGRSRSPQRPGWSRSRNTQRRGRSRSARRGRSHSRSPATRGRSRSRTPARRGRSRSRTPARRRSRSRTPTRRRSRSRTPARRGRSRSRTPARRRSRTRSPVRRRSRSRSPARRSGRSRSRTPARRGRSRSRTPARRGRSRSRTPARRSGRSRSRTPARRGRSRSRTPRRGRSRSRSLVRRGRSHSRTPQRRGRSGSSSERKNKSRTSQRRSRSNSSPEMKKSRISSRRSRSLSSPRSKAKSRLSLRRSLSGSSPCPKQKSQTPPRRSRSGSSQPKAKSRTPPRRSRSSSSPPPKQKSKTPSRQSHSSSSPHPKVKSGTPPRQGSITSPQANEQSVTPQRRSCFESSPDPELKSRTPSRHSCSGSSPPRVKSSTPPRQSPSRSSSPQPKVKAIISPRQRSHSGSSSPSPSRVTSRTTPRRSRSVSPCSNVESRLLPRYSHSGSSSPDTKVKPETPPRQSHSGSISPYPKVKAQTPPGPSLSGSKSPCPQEKSKDSLVQSCPGSLSLCAGVKSSTPPGESYFGVSSLQLKGQSQTSPDHRSDTSSPEVRQSHSESPSLQSKSQTSPKGGRSRSSSPVTELASRSPIRQDRGEFSASPMLKSGMSPEQSRFQSDSSSYPTVDSNSLLGQSRLETAESKEKMALPPQEDATASPPRQKDKFSPFPVQDRPESSLVFKDTLRTPPRERSGAGSSPETKEQNSALPTSSQDEELMEVVEKSEEPAGQILSHLSSELKEMSTSNFESSPEVEERPAVSLTLDQSQSQASLEAVEVPSMASSWGGPHFSPEHKELSNSPLRENSFGSPLEFRNSGPLGTEMNTGFSSEVKEDLNGPFMAEIGTGFPFDPHYVEVLGERMHYVDVGPRDGTPVLFLHGNPTSSYVWRNIIPHVAPTHRCIAPDLIGMGKSDKPDLGYFFDDHVRFMDAFIEALGLEEVVLVIHDWGSALGFHWAKRNPERVKGIAFMEFIRPIPTWDEWPEFARETFQAFRTTDVGRKLIIDQNVFIEGTLPMGVVRPLTEVEMDHYREPFLNPVDREPLWRFPNELPIAGEPANIVALVEEYMDWLHQSPVPKLLFWGTPGVLIPPAEAARLAKSLPNCKAVDIGPGLNLLQEDNPDLIGSEIARWLSTLEISG
modifications: JF646 Halo ligand covalently bound to the Halo tag
notes: also called truncation 4

binding result [1]: no binding
B4: SRRM2_7-Halo (other)
chain: MYNGIGLPTPRGSGTNGYVQRNLSLVRGRRGERPDYKGEEELRRLEAALVKRPNPDILDHERKRRVELRCLELEEMMEEQGYEEQQIQEKVATFRLMLLEKDVNPGGKEETPGQRPAVTETHQLAELNEKKNERLRAAFGISDSYVDGSSFDPQRRAREAKQPAPEPPKPYSLVRESSSSRSPTPKQKKKKKKKDRGRRSESSSPRRERKKSSKKKKHRSESESKKRKHRSPTPKSKRKSKDKKRKRSRSTTPAPKSRRAHRSTSADSASSSDTSRSRSRSAAAKTHTTALAGRSPSPASGRRGEGDAPFSEPGTTSTQRPSSPETATKQPSSPYEDKDKDKKEKSATRPSPSPERSSTGPEPPAPTPLLAERHGGSPQPLATTPLSQEPVNPPSEASPTRDRSPPKSPEKLPQSSSSESSPPSPQPTKVMAEIGTGFPFDPHYVEVLGERMHYVDVGPRDGTPVLFLHGNPTSSYVWRNIIPHVAPTHRCIAPDLIGMGKSDKPDLGYFFDDHVRFMDAFIEALGLEEVVLVIHDWGSALGFHWAKRNPERVKGIAFMEFIRPIPTWDEWPEFARETFQAFRTTDVGRKLIIDQNVFIEGTLPMGVVRPLTEVEMDHYREPFLNPVDREPLWRFPNELPIAGEPANIVALVEEYMDWLHQSPVPKLLFWGTPGVLIPPAEAARLAKSLPNCKAVDIGPGLNLLQEDNPDLIGSEIARWLSTLEISG
modifications: JF646 Halo ligand covalently bound to the Halo tag
notes: also called truncation 7
